Key:
[1] = target: T (control protein of the yeast two-hybrid kit, pGBKT7-T as printed); assay: two-hybrid; quantitative β-gal assay of mated yeast cells with ONPG as substrate, Miller's units from OD420, in triplicate; product in test samples almost 20 h after substrate addition
[2] = target: GmZPR3d (soybean (Glycine max)); assay: as above

| fold β-Gal activity against GmHD-ZIP III-2::ZPR3b and GmHD-ZIP III-2::ZPR3c [2] [fold] | Substance | fold β-Gal activity against any of the experimental pairs [1] [fold] |
| --- | --- | --- |
|  | 53 (positive control protein of the yeast two-hybrid kit, pGADT7-53 as printed) (domain or fragment) | 14 |
| 7 | GmHD-ZIP III-2 (natural protein) |  |

Reference: paper PMC6412583
